# Substitutions are numbered along the chain they refer to.
# T1: human CD16b as FACS target of FIGS. 6B-10B (human, UniProt O75015 17-200)
# T1 chain: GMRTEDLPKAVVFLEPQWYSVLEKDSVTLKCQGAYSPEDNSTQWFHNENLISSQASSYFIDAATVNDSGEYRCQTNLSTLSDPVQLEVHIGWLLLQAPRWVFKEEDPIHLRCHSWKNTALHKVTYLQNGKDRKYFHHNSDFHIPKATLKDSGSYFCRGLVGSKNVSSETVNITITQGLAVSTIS
# T2: cynomolgus monkey CD16a on HEK293 cells expressing cyno monkey CD16a (constructed by Genscript) (cynomolgus monkey, UniProt Q8SPW2 17-254)
# T2 chain: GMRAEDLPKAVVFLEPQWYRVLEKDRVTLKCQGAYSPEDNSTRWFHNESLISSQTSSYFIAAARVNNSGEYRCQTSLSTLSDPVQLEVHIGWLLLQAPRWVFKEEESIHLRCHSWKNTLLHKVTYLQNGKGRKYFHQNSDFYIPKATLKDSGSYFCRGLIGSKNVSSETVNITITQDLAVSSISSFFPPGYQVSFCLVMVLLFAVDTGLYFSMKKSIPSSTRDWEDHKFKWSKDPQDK
# B1: pTT5-AR8804-3.2 mIgG1Fc (Fc fusion)
# heavy: QVQLVESGGGVVQPGGSLRLSCAASGSSVSRYAMAWYRQAPGKGREWVAVVRITGIPIYADFVKGRFTISRDNSKNTLYLQMNSLRAEDTAVYYCATGNFNTYTRRYSPSETWGKGTTVTVSSVPRDCGCKPCICTVPEVSSVFIFPPKPKDVLTITLTPKVTCVVVDISKDDPEVQFSWFVDDVEVHTAQTQPREEQFNSTFRSVSELPIMHQDWLNGKEFKCRVNSAAFPAPIEKTISKTKGRPKAPQVYTIPPPKEQMAKDKVSLTCMITDFFPEDITVEWQWNGQPAENYKNTQPIMDTDGSYFVYSKLNVQKSNWEAGNTFTCSVLHEGLHNHHTEKSLSHSPGK
# B2: pTT5-AR8820-2.3mIgG1Fc (Fc fusion)
# VHH-Fc: EVQLVESGGGLIQPGGSLRLSCAASGSSISRYAMAWYRQAPGKGRELVSVVRITGSPIYADFVGGRFTISRDNSKNTLYLQMNSLRAEDTAVYYCNRGNFNTYTRRYSPSETWGQGTTVTVSSVPRDCGCKPCICTVPEVSSVFIFPPKPKDVLTITLTPKVTCVVVDISKDDPEVQFSWFVDDVEVHTAQTQPREEQFNSTFRSVSELPIMHQDWLNGKEFKCRVNSAAFPAPIEKTISKTKGRPKAPQVYTIPPPKEQMAKDKVSLTCMITDFFPEDITVEWQWNGQPAENYKNTQPIMDTDGSYFVYSKLNVQKSNWEAGNTFTCSVLHEGLHNHHTEKSLSHSPGK
# B3: pTT5-AR8820-2.1mIgG1Fc (Fc fusion)
# VHH-Fc: B2 VHH-Fc with N96A, R97T
# B4: pTT5-AR8804-3.3mIgG1Fc (Fc fusion)
# heavy: B1 heavy with W47L, A96N
# B5: pTT5-AR8820-1.2mIgG1Fc (Fc fusion)
# heavy: B1 heavy with V29I, I56S, K64G
# B6: pTT5-AR8820-1.1mIgG1Fc (Fc fusion)
# heavy: B1 heavy with V29I, W47L, I56S, K64G
# B7: pTT5-AR8820-1.3mIgG1Fc (Fc fusion)
# heavy: B1 heavy with V29I, W47L, I56S, K64G, A96N
# B8: pTT5-AR8820-3.3 mIgG1Fc (Fc fusion)
# VHH-Fc: B2 VHH-Fc with I12V, S49A, S74A, T77S, R97T, T118L
# B9: pTT5-AR8820-3.1 mIgG1Fc (Fc fusion)
# heavy: B2 VHH-Fc with I12V, S49A, S74A, T77S, N96A, R97T, T118L
# B10: AR8887 sdAb fusion protein with mIgG1 Fc (Fc fusion)
# chain: QVQLVESGGGLVQAGGSLRLSCAVSGFLYYSIGWFRQAPGKEREWVSCISRSGAGTSYANSVKGRSTISRDNDKNTVYLQMNSLKSEDTAVYYCARRATSSCTATMTRGQYDYWGQGTQVTVSSVPRDCGCKPCICTVPEVSSVFIFPPKPKDVLTITLTPKVTCVVVDISKDDPEVQFSWFVDDVEVHTAQTQPREEQFNSTFRSVSELPIMHQDWLNGKEFKCRVNSAAFPAPIEKTISKTKGRPKAPQVYTIPPPKEQMAKDKVSLTCMITDFFPEDITVEWQWNGQPAENYKNTQPIMDTDGSYFVYSKLNVQKSNWEAGNTFTCSVLHEGLHNHHTEKSLSHSPGK
# B11: AR8875 sdAb fusion protein with mIgG1 Fc (Fc fusion)
# chain: QVQLVESGGGLVQPGGSLRLSCAASGFTFSNYAMTWVRQAPGKGLEWVSSIDRGGSITSYADSVKGRFAISRDNAKNTMYLQMNNLRPEDTARYVCARGDSTYSRLTAAYRGQGTQVTVSSVPRDCGCKPCICTVPEVSSVFIFPPKPKDVLTITLTPKVTCVVVDISKDDPEVQFSWFVDDVEVHTAQTQPREEQFNSTFRSVSELPIMHQDWLNGKEFKCRVNSAAFPAPIEKTISKTKGRPKAPQVYTIPPPKEQMAKDKVSLTCMITDFFPEDITVEWQWNGQPAENYKNTQPIMDTDGSYFVYSKLNVQKSNWEAGNTFTCSVLHEGLHNHHTEKSLSHSPGK
# B12: AR8776 sdAb fusion protein with mIgG1 Fc (Fc fusion)
# chain: B11 chain with Q1A, T35S, D52N, S59N, M79I, R93Q, V95S, T107S
# B13: AR8820 sdAb fusion protein with mIgG1 Fc (Fc fusion)
# chain: QVKLEESGGGLVQAGGSLRLSCAASGSSISRYAMAWYRQGPGKERELVAVVRITGSPIYADFVGGRFTISRDNAKSTVLLQMNSLKPEDTAIYYCNTGNFNTYTRRYSPSETWGQGTQVTVSSVPRDCGCKPCICTVPEVSSVFIFPPKPKDVLTITLTPKVTCVVVDISKDDPEVQFSWFVDDVEVHTAQTQPREEQFNSTFRSVSELPIMHQDWLNGKEFKCRVNSAAFPAPIEKTISKTKGRPKAPQVYTIPPPKEQMAKDKVSLTCMITDFFPEDITVEWQWNGQPAENYKNTQPIMDTDGSYFVYSKLNVQKSNWEAGNTFTCSVLHEGLHNHHTEKSLSHSPGK
# B14: AR8804 sdAb fusion protein with mIgG1 Fc (Fc fusion)
# chain: B13 chain with Q1A, K3Q, E5V, E6D, I29V, G40A, S56I, G64K, S76N, K86E
# B15: AR8866 sdAb fusion protein with mIgG1 Fc (Fc fusion)
# chain: QVKLEESGGGLVQPGGSLRLSCVASGFTFSVWTMSWVRQAPGKGLEWVSDISHSGIYTTYADSVKGRFTISRDNAKNTLWLQLNALKPEDTAVYYCAQGNRRNSMLSGTLRGQGTQVTVSSVPRDCGCKPCICTVPEVSSVFIFPPKPKDVLTITLTPKVTCVVVDISKDDPEVQFSWFVDDVEVHTAQTQPREEQFNSTFRSVSELPIMHQDWLNGKEFKCRVNSAAFPAPIEKTISKTKGRPKAPQVYTIPPPKEQMAKDKVSLTCMITDFFPEDITVEWQWNGQPAENYKNTQPIMDTDGSYFVYSKLNVQKSNWEAGNTFTCSVLHEGLHNHHTEKSLSHSPGK
# B16: AR8861 sdAb fusion protein with mIgG1 Fc (Fc fusion)
# chain: B15 chain with Q1A, K3Q, E5V, E6D, V31I, I56L, N103T
# Target: T3, human CD16a on HEK293 cells expressing human CD16a (constructed by Genscript) (human, UniProt P08637 17-254)
# Assay: FACS
# T3 sequence (P08637 17-254): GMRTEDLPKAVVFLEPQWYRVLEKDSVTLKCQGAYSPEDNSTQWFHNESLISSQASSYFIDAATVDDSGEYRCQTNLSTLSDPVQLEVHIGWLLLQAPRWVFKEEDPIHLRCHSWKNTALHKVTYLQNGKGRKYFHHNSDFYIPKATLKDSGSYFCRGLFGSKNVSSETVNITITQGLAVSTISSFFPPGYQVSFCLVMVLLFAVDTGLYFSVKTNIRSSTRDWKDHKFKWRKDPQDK
row,EC50 [µM],Binder
1,0.000444,B1
2,0.000332,B2
3,0.000494,B3
4,0.000412,B4
5,0.00047,B5
6,0.00038,B6
7,0.000384,B7

# Target: T1, human CD16b as FACS target of FIGS. …
# Assay: FACS
row,EC50 [µM],Binder
1,~195,B1
2,~167,B2
3,~7840,B3
4,~0.497,B5
5,~65.6,B6

# Target: T3, human CD16a on HEK293 cells expressing …
# Assay: FACS
# Remark: another data set of the same source
row,EC50 [µM],Binder
1,0.000452,B8
2,0.000419,B9

# Target: T1, human CD16b as FACS target of FIGS. …
# Assay: FACS
# Remark: another data set of the same source
row,EC50 [µM],Binder
1,0.0618,B8
2,0.0623,B9

# Target: T2, cynomolgus monkey CD16a on HEK293 cells …
# Assay: FACS
row,EC50 [µM],Binder
1,0.000928,B1
2,0.000745,B2
3,0.000751,B8
4,0.000787,B3
5,0.000838,B4
6,0.000914,B5
7,0.00092,B6
8,0.000738,B9
9,0.000772,B7

# Target: recombinant human CD16a-His protein (Acro Biosystems; catalog #: CDA-H52S1) (human, UniProt P08637 17-208)
# Assay: ELISA (OD450; legend says FACS)
# Sequence of recombinant human CD16a-His protein (Acro Biosystems; catalog #: CDA-H52S1) (P08637 17-208): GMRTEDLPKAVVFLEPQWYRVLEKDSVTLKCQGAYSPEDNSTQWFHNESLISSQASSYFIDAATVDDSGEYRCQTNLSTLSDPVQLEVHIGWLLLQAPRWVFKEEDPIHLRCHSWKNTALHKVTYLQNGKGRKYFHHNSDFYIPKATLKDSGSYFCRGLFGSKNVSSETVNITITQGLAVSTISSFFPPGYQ
row,EC50 [µg/mL],Binder
1,0.0217,B10
2,0.018,B11
3,0.0155,B12
4,0.0151,B13
5,0.0158,B14
6,0.0174,B15
7,0.0227,B16
